One sequence from PMC2719692 can be followed below.

The target of the data set is T1, eEF1α (GST fusion) (rat) (UniProt P62630).
T1 sequence: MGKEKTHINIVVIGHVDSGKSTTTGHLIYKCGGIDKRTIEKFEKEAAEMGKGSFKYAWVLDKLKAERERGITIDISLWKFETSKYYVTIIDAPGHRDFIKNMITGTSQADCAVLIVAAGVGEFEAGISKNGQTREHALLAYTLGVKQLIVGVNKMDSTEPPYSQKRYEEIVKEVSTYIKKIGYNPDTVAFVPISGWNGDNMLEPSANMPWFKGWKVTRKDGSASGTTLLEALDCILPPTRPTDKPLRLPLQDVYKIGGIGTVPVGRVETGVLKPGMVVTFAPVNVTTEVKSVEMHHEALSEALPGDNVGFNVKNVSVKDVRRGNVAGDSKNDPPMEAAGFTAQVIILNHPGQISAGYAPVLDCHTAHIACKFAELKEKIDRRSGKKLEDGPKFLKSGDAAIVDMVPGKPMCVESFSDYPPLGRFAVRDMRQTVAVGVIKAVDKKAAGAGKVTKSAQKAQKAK
Kind of data set: EMSA. The settings on record: EMSA: 40 mM NaCl, 5 mM MgCl2, 30 mM Tris-HCl pH 7.6, 2 mM DTT, protease inhibitors, 22 °C 15 min, then RNase T1 (described for CHO extract); 12 fmol RNA in …. (In EMSA bound probe runs differently from free probe, usually more slowly.)

Turning to “GGAGUGACGAACAGUGCUGCUGCCCUCAGGUGUAAAUAAUUUCCGGACCAACUCAGAGUCUUGCCGUACACCUCCACCCAGUUUACUAAACCCCGUUUUCUACCGAGCAUGUG [MT-111 (MT-1 3′UTR nt 1-111)]”, the binding entry is on record as “binds”.
